The record followed here is paper PMC3036652, “Functional Analysis of an Acid Adaptive DNA Adenine Methyltransferase from Helicobacter pylori 26695” (PLoS ONE, 2011).

In general, stoichiometry N refers to the number of molecules, sites or subunits per partner or assembly. One may read the Kd as the equilibrium constant for the complex coming apart.

One series addresses T1, HP0593 MTase (Helicobacter pylori, UniProt O25315).
T1 construct: gene HP_0593; full-length, 1797 bp gene in pET14b (NdeI/BamHI), N-terminal His6 tag kept, E. coli BL21(DE3) pLysS; monomer and dimer in solution, functions as dimer
T1 sequence (O25315 1-598): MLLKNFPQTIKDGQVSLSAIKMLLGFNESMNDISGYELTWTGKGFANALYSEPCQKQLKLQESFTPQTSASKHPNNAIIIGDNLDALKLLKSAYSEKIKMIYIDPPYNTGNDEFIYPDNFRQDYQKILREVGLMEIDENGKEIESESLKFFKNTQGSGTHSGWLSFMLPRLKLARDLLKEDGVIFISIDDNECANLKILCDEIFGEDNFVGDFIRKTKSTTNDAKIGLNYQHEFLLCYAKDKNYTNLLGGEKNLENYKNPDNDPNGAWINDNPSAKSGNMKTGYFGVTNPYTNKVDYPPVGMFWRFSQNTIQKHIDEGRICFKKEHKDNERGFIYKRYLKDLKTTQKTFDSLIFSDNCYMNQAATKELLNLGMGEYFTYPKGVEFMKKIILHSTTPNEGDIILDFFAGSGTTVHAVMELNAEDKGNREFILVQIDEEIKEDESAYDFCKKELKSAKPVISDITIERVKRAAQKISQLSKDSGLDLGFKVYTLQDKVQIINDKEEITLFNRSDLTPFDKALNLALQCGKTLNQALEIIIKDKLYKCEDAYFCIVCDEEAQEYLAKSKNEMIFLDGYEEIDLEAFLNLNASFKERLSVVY
The series can be described thus: EMSA of enzyme with […]-labelled duplex […] DNA. Format: binding. As to conditions: on ice, no divalent metal, ternary complex with cognate DNA, indirect read-out. On the technique in general: In EMSA bound probe runs differently from free probe, usually more slowly.

Series [1] deals with HP0593 DNA-(N6-adenine)-methyltransferase (Helicobacter pylori 26695). The series can be described thus: SEC. A general note: SEC sorts molecules by how far they enter the pores of the column.
For series [2] the target is unchanged. As to the kind of experiment: cross-linking.
The target is the same in series [3]. The series can be described thus: SEC; reinjection of the dimer peak of the gel filtration; data not shown.
The target is the same in series [4]. The series can be described thus: cross-linking; 0.06% and 0.08% glutaraldehyde-treated HP0593 MTase, products analysed by MALDI-MS; data not shown.
Series [5] deals with T2, HP0593 DNA-(N6-adenine)-methyltransferase (HP0593 MTase) (Helicobacter pylori 26695, UniProt O25315 1-598).
T2 sequence: T1 sequence (O25315 1-598)
As to the kind of experiment: EMSA; no cofactor; up to 3.0 µM protein; EMSA: 10 mM potassium phosphate pH 5.5, 7 mM β-mercaptoethanol, 10% glycerol, no divalent metal, 10 min on ice, 0.5-5.0 µM protein, ~100 nM DNA, gel 0.5x TBE 4°C; SPR: 10 mM HEPES pH 7.4, 100 mM NaCl, 0.05% P-20, ±1.0 mM MnCl2, 25°C, 1:1 Langmuir global fit. As to conditions: protein: recombinant; tags: N-terminal His6 (pET14b); label: 32P; blunt.

Series [6] concerns the target T2, HP0593 …. As to the kind of experiment: SPR; 1.0 mM MnCl2; EMSA: 10 mM potassium phosphate pH 5.5, 7 mM β-mercaptoethanol, 10% glycerol, no divalent metal, 10 min on ice, 0.5-5.0 µM protein, ~100 nM DNA, gel 0.5x TBE 4°C; SPR: 10 mM HEPES pH 7.4, 100 mM NaCl, 0.05% P-20, ±1.0 mM MnCl2, 25°C, 1:1 Langmuir global fit. To be noted: protein: recombinant; tags: N-terminal His6 (pET14b); label: 5' biotin on top strand, immobilized on SA chip; blunt. (In general: SPR reads the build-up and loss of mass on a sensor chip optically.)

With `Nc1ncnc2c1ncn2[C@@H]1O[C@H](CSCC[C@H](N)C(=O)O)[C@@H](O)[C@H]1O` [AdoHcy], the “EMSA of enzyme with 32P-labelled duplex 2 DNA” value at HP0593 MTase (5 µM AdoHcy, 10 mM potassium phosphate pH 5.5) is given as “This suggested the formation of a stable ternary complex in the presence of AdoHcy”. Consider `Nc1ncnc2c1ncn2[C@@H]1O[C@H](C[C@@H](N)CC[C@H](N)C(=O)O)[C@@H](O)[C@H]1O` [sinefungin], for which the “EMSA of enzyme with 32P-labelled duplex 2 DNA” value at HP0593 MTase (10 µM sinefungin, pH 5.5) was “which is stabilized by AdoHcy and in some extent by sinefungin”. For “HP0593 DNA-(N6-adenine)-methyltransferase (enzyme)”, the stoichiometry N in series [1], in series [2], in series [3] and in series [4] was 2 each time.

B1: duplex 19 (lacks GCAG) (dsDNA)
DNA 1: GATCAATAGATCCCCGGATCATTTACATT
DNA 2: AATGTAAATGATCCGGGGATCTATTGATC
As for B1, the binding result in series [5] is on record as “no binding”.

B2: duplex 18 (dsDNA)
DNA 1: GATCAATAGATGCGCAGATCATTTACATT
DNA 2: AATGTAAATGATCTGCGCATCTATTGATC
For the molecule B2, in series [6], the Kd worked out at 4.58 nM.
